In patent US20210369842A1 (Genmab, published 2021):

Key:
Human CD137 = Human CD137 (human, UniProt Q07011 24-255); experiment: cell-based or functional assay
Human PD-L1 [1] = target: T1, Human PD-L1 (human, UniProt Q9NZQ7 19-290); experiment: flow cytometry on SK-MES-1 cells, PE-conjugated goat anti-human IgG F(ab')2 as secondary
T1 construct: Amino acids 1-18 are stated as the predicted signal peptide; also called CD274; B7H1
Protocol: (§1) Cells (3-5×10⁴ cells/well) were incubated in polystyrene 96-well round-bottom plates (Greiner bio-one, cat. no. 650101) with serial dilutions of antibodies (range 0.0001 to 10 μg/mL in 5-fold dilution steps) in 50 μL PBS/0.1% BSA/0.02% azide (FACS buffer) at 4° C. for 30 min. After washing twice in FACS buffer, cells were incubated with secondary antibody at 4° C. for 30 min. As a secondary antibody, R-Phycoerythrin (PE)-conjugated goat-anti-human IgG F(ab′)₂ (Cat. no. 109-116-098, Jackson ImmunoResearch Laboratories, Inc., West Grove, Pa.) diluted 1:500 in 50 μL FACS buffer, was used for all experiments. Next, cells were washed twice in FACS buffer, re-suspended in 20 μL FACS buffer and analyzed on an iQue screener (Intellicyt Corporation, USA). Binding curves were analyzed using non-linear regression (sigmoidal dose-response with variable slope) using GraphPad Prism V75.04 software (GraphPad Software, San Diego, Calif., USA).

Human PD-L1 [2] = target: T1, Human PD-L1; experiment: flow cytometry on PC-3 cells, PE-conjugated goat anti-human IgG F(ab')2 as secondary
Protocol: as §1

Human PD-L1 [3] = target: T1, Human PD-L1; experiment: flow cytometry on MDA-MB-231 cells, PE-conjugated goat anti-human IgG F(ab')2 as secondary
Protocol: as §1

Human PD-L1 [4] = target: T1, Human PD-L1; experiment: cell-based or functional assay

T1 sequence (Q9NZQ7 19-290): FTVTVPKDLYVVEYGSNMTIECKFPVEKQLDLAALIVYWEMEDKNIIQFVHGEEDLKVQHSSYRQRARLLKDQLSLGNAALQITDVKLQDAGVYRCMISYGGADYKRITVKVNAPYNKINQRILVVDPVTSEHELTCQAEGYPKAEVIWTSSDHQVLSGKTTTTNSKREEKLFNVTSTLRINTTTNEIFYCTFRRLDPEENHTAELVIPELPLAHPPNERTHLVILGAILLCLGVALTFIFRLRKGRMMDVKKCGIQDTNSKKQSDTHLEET
Chain of Human CD137 (Q07011 24-255): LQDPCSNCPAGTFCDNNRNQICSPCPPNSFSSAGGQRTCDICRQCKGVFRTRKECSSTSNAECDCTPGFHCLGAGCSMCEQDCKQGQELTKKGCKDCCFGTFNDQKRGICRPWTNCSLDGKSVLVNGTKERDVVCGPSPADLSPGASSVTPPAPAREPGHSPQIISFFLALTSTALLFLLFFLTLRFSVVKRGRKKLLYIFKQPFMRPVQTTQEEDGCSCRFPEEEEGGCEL

B1: PD-L1-547-FEALxCD137-009-HC7LC2-FEAR (bispecific antibody, human IgG1, kappa, lambda)
heavy 1: EVQLLEPGGGLVQPGGSLRLSCEASGSTFSTYAMSWVRQAPGKGLEWVSGFSGSGGFTFYADSVRGRFTISRDSSKNTLFLQMSSLRAEDTAVYYCAIPARGYNYGSFQHWGQGTLVTVSSASTKGPSVFPLAPSSKSTSGGTAALGCLVKDYFPEPVTVSWNSGALTSGVHTFPAVLQSSGLYSLSSVVTVPSSSLGTQTYICNVNHKPSNTKVDKRVEPKSCDKTHTCPPCPAPEFEGGPSVFLFPPKPKDTLMISRTPEVTCVVVAVSHEDPEVKFNWYVDGVEVHNAKTKPREEQYNSTYRVVSVLTVLHQDWLNGKEYKCKVSNKALPAPIEKTISKAKGQPREPQVYTLPPSREEMTKNQVSLTCLVKGFYPSDIAVEWESNGQPENNYKTTPPVLDSDGSFLLYSKLTVDKSRWQQGNVFSCSVMHEALHNHYTQKSLSLSPGK
light 1: SYVLTQPPSVSVAPGQTARITCGGNNIGSKSVHWYQQKPGQAPVLVVYDDNDRPSGLPERFSGSNSGNTATLTISRVEAGDEADYYCQVWDSSSDHVVFGGGTKLTVLGQPKAAPSVTLFPPSSEELQANKATLVCLISDFYPGAVTVAWKADSSPVKAGVETTTPSKQSNNKYAASSYLSLTPEQWKSHRSYSCQVTHEGSTVEKTVAPTECS
heavy 2: EVQLVESGGGLVQPGRSLRLSCTASGFSLNDYWMSWVRQAPGKGLEWVGYIDVGGSLYYAASVKGRFTISRDDSKSIAYLQMNSLKTEDTAVYYCARGGLTYGFDLWGQGTLVTVSSASTKGPSVFPLAPSSKSTSGGTAALGCLVKDYFPEPVTVSWNSGALTSGVHTFPAVLQSSGLYSLSSVVTVPSSSLGTQTYICNVNHKPSNTKVDKRVEPKSCDKTHTCPPCPAPEFEGGPSVFLFPPKPKDTLMISRTPEVTCVVVAVSHEDPEVKFNWYVDGVEVHNAKTKPREEQYNSTYRVVSVLTVLHQDWLNGKEYKCKVSNKALPAPIEKTISKAKGQPREPQVYTLPPSREEMTKNQVSLTCLVKGFYPSDIAVEWESNGQPENNYKTTPPVLDSDGSFFLYSRLTVDKSRWQQGNVFSCSVMHEALHNHYTQKSLSLSPGK
light 2: DIVMTQSPSSLSASVGDRVTITCQASEDISSYLAWYQQKPGKAPKRLIYGASDLASGVPSRFSASGSGTDYTFTISSLQPEDIATYYCHYYATISGLGVAFGGGTKVEIKRTVAAPSVFIFPPSDEQLKSGTASVVCLLNNFYPREAKVQWKVDNALQSGNSQESVTEQDSKDSTYSLSSTLTLSKADYEKHKVYACEVTHQGLSSPVTKSFNRGEC
For B1, the “EC50 value, CD8+ T-cell expansion (donor 1, 0.03 µg/ml anti-CD3)” value (Human CD137) was 0.0122 µg/mL and the “EC50 value, CD8+ T-cell expansion (donor 2, 0.09 µg/ml anti-CD3)” value (Human CD137) was 0.00689 µg/mL.

B2: b12-FEALxPD-L1-547-FEAR (bispecific antibody)
heavy 1: QVQLVQSGAEVKKPGASVKVSCQASGYRFSNFVIHWVRQAPGQRFEWMGWINPYNGNKEFSAKFQDRVTFTADTSANTAYMELRSLRSADTAVYYCARVGPYSWDDSPQDNYYMDVWGKGTTVIVSSASTKGPSVFPLAPSSKSTSGGTAALGCLVKDYFPEPVTVSWNSGALTSGVHTFPAVLQSSGLYSLSSVVTVPSSSLGTQTYICNVNHKPSNTKVDKRVEPKSCDKTHTCPPCPAPEFEGGPSVFLFPPKPKDTLMISRTPEVTCVVVAVSHEDPEVKFNWYVDGVEVHNAKTKPREEQYNSTYRVVSVLTVLHQDWLNGKEYKCKVSNKALPAPIEKTISKAKGQPREPQVYTLPPSREEMTKNQVSLTCLVKGFYPSDIAVEWESNGQPENNYKTTPPVLDSDGSFLLYSKLTVDKSRWQQGNVFSCSVMHEALHNHYTQKSLSLSPGK
light 1: EIVLTQSPGTLSLSPGERATFSCRSSHSIRSRRVAWYQHKPGQAPRLVIHGVSNRASGISDRFSGSGSGTDFTLTITRVEPEDFALYYCQVYGASSYTFGQGTKLERKRTVAAPSVFIFPPSDEQLKSGTASVVCLLNNFYPREAKVQWKVDNALQSGNSQESVTEQDSKDSTYSLSSTLTLSKADYEKHKVYACEVTHQGLSSPVTKSFNRGEC
heavy 2: EVQLLEPGGGLVQPGGSLRLSCEASGSTFSTYAMSWVRQAPGKGLEWVSGFSGSGGFTFYADSVRGRFTISRDSSKNTLFLQMSSLRAEDTAVYYCAIPARGYNYGSFQHWGQGTLVTVSSASTKGPSVFPLAPSSKSTSGGTAALGCLVKDYFPEPVTVSWNSGALTSGVHTFPAVLQSSGLYSLSSVVTVPSSSLGTQTYICNVNHKPSNTKVDKRVEPKSCDKTHTCPPCPAPEFEGGPSVFLFPPKPKDTLMISRTPEVTCVVVAVSHEDPEVKFNWYVDGVEVHNAKTKPREEQYNSTYRVVSVLTVLHQDWLNGKEYKCKVSNKALPAPIEKTISKAKGQPREPQVYTLPPSREEMTKNQVSLTCLVKGFYPSDIAVEWESNGQPENNYKTTPPVLDSDGSFFLYSRLTVDKSRWQQGNVFSCSVMHEALHNHYTQKSLSLSPGK
light 2: SYVLTQPPSVSVAPGQTARITCGGNNIGSKSVHWYQQKPGQAPVLVVYDDNDRPSGLPERFSGSNSGNTATLTISRVEAGDEADYYCQVWDSSSDHVVFGGGTKLTVLGQPKAAPSVTLFPPSSEELQANKATLVCLISDFYPGAVTVAWKADSSPVKAGVETTTPSKQSNNKYAASSYLSLTPEQWKSHRSYSCQVTHEGSTVEKTVAPTECS
notes: also called monovalent PD-L1 antibody; monovalent PD-L1-control antibody
For B2, the “EC50 (read off the curve)” value (Human PD-L1 [1]) was roughly 0.2 µg/mL, the “EC50 (read off the curve)” value (Human PD-L1 [2]) was roughly 0.05 µg/mL and the “EC50 (read off the curve)” value (Human PD-L1 [3]) was roughly 0.06 µg/mL. The “EC50 (read off the curve); fold induction in the PD-1/PD-L1 inhibition bioassay, blocked partner human PD-1” value (Human PD-L1 [4]) was roughly 0.1 µg/mL.

B3: PD-L1-547-FEAR (antibody, human IgG1, lambda, V domains shown)
VH: EVQLLEPGGGLVQPGGSLRLSCEASGSTFSTYAMSWVRQAPGKGLEWVSGFSGSGGFTFYADSVRGRFTISRDSSKNTLFLQMSSLRAEDTAVYYCAIPARGYNYGSFQHWGQGTLVTVSS
VL: SYVLTQPPSVSVAPGQTARITCGGNNIGSKSVHWYQQKPGQAPVLVVYDDNDRPSGLPERFSGSNSGNTATLTISRVEAGDEADYYCQVWDSSSDHVVFGGGTKLTVLG
notes: Human IgG1 lambda with L234F, L235E, D265A and K409R (FEAR)
B3 was tested, and the “EC50 (read off the curve)” value (Human PD-L1 [1]) was roughly 0.1 µg/mL, the “EC50 (read off the curve)” value (Human PD-L1 [2]) was roughly 0.04 µg/mL and the “EC50 (read off the curve)” value (Human PD-L1 [3]) was roughly 0.05 µg/mL.

B4: b12 (antibody, V domains shown)
VH: QVQLVQSGAEVKKPGASVKVSCQASGYRFSNFVIHWVRQAPGQRFEWMGWINPYNGNKEFSAKFQDRVTFTADTSANTAYMELRSLRSADTAVYYCARVGPYSWDDSPQDNYYMDVWGKGTTVIVSS
VL: EIVLTQSPGTLSLSPGERATFSCRSSHSIRSRRVAWYQHKPGQAPRLVIHGVSNRASGISDRFSGSGSGTDFTLTITRVEPEDFALYYCQVYGASSYTFGQGTKLERK
notes: also called monospecific, bivalent b12 antibody; gp120 specific antibody
B4: no binding (tested: 10 µg/mL) (Human PD-L1 [3]).
